For assay [1], the target named is BG505.T332N Env on Env-pseudotyped virus (HIV-1 BG505 (clade A)).
Assay [2] shares this target. In words: cell-based or functional assay.

PGT136 (antibody) registered an IC50, neutralization of BG505.T332N pseudovirus, TZM-bl cells in assay [1] of 25.7 µg/mL. The same substance displayed an IC50 of neutralization of BG505.T332N Env-pseudovirus (TZM-bl) in assay [2] of 26.6 µg/mL.

In assay [1], PG16 (antibody) registered an IC50, neutralization of BG505.T332N pseudovirus, TZM-bl cells of 0.008 µg/mL.

Consider PGV04 (antibody), for which the IC50, neutralization of BG505.T332N pseudovirus, TZM-bl cells in assay [1] turned out to be 0.066 µg/mL.

PGT127 (antibody): the IC50, neutralization of BG505.T332N pseudovirus, TZM-bl cells in assay [1] stood at 0.037 µg/mL.

In assay [1], PGT130 (antibody) gave an IC50, neutralization of BG505.T332N pseudovirus, TZM-bl cells of 0.027 µg/mL.

For 8ANC195 (antibody), in assay [1], the IC50, neutralization of BG505.T332N pseudovirus, TZM-bl cells is 0.139 µg/mL.

Substance X5 (antibody) registered an IC50, neutralization of BG505.T332N pseudovirus, TZM-bl cells in assay [1] above 30 µg/mL. The substance further yielded an IC50 of neutralization of BG505.T332N Env-pseudovirus (TZM-bl) in assay [2] above 30 µg/mL.

CH01 (antibody) yielded an IC50, neutralization of BG505.T332N pseudovirus, TZM-bl cells in assay [1] of 0.301 µg/mL.

3BNC117 (antibody): the IC50, neutralization of BG505.T332N pseudovirus, TZM-bl cells in assay [1] is 0.041 µg/mL.

7B2 (antibody) came in with an IC50, neutralization of BG505.T332N pseudovirus, TZM-bl cells in assay [1] above 30 µg/mL. Also, in assay [2], the IC50 of neutralization of BG505.T332N Env-pseudovirus (TZM-bl) was above 30 µg/mL.

Take 45-46 (antibody): in assay [1], the IC50, neutralization of BG505.T332N pseudovirus, TZM-bl cells stood at 0.033 µg/mL.

For 3BC176 (antibody), in assay [1], the IC50, neutralization of BG505.T332N pseudovirus, TZM-bl cells was 0.175 µg/mL.

Take b6 (antibody): the IC50, neutralization of BG505.T332N pseudovirus, TZM-bl cells in assay [1] is above 30 µg/mL. Further, the IC50 of neutralization of BG505.T332N Env-pseudovirus (TZM-bl) in assay [2] is above 30 µg/mL.

The substance PGT121 (antibody) had an IC50, neutralization of BG505.T332N pseudovirus, TZM-bl cells in assay [1] of 0.015 µg/mL.

For CH103 (antibody), the IC50, neutralization of BG505.T332N pseudovirus, TZM-bl cells in assay [1] worked out at 2.57 µg/mL.

As to PGT128 (antibody), in assay [1], the IC50, neutralization of BG505.T332N pseudovirus, TZM-bl cells was found to be 0.011 µg/mL.

On to CH31 (antibody), for which, in assay [1], the IC50, neutralization of BG505.T332N pseudovirus, TZM-bl cells came out at 0.014 µg/mL.

Consider F91 (antibody), for which, in assay [1], the IC50, neutralization of BG505.T332N pseudovirus, TZM-bl cells is above 30 µg/mL. In addition, the IC50 of neutralization of BG505.T332N Env-pseudovirus (TZM-bl) in assay [2] is above 30 µg/mL.

PGT123 (antibody) displayed an IC50, neutralization of BG505.T332N pseudovirus, TZM-bl cells in assay [1] of 0.028 µg/mL.

In the case of b12 (antibody), in assay [1], the IC50, neutralization of BG505.T332N pseudovirus, TZM-bl cells was above 30 µg/mL. The IC50 of neutralization of BG505.T332N Env-pseudovirus (TZM-bl) in assay [2] was 30 µg/mL.

As for VRC01 (antibody), the IC50, neutralization of BG505.T332N pseudovirus, TZM-bl cells in assay [1] came to 0.07 µg/mL.

Consider F105 (antibody), for which the IC50, neutralization of BG505.T332N pseudovirus, TZM-bl cells in assay [1] is above 30 µg/mL. In addition, in assay [2], the IC50 of neutralization of BG505.T332N Env-pseudovirus (TZM-bl) was above 30 µg/mL.

Substance VRC03 (antibody) yielded an IC50, neutralization of BG505.T332N pseudovirus, TZM-bl cells in assay [1] of 0.554 µg/mL.

For the substance HJ16 (antibody), in assay [1], the IC50, neutralization of BG505.T332N pseudovirus, TZM-bl cells turned out to be 3.2 µg/mL.

Turning to PGT135 (antibody), the IC50, neutralization of BG505.T332N pseudovirus, TZM-bl cells in assay [1] worked out at 2.23 µg/mL.

With PGT126 (antibody), the IC50, neutralization of BG505.T332N pseudovirus, TZM-bl cells in assay [1] was found to be 0.01 µg/mL.

Take 1NC9 (antibody): the IC50, neutralization of BG505.T332N pseudovirus, TZM-bl cells in assay [1] stood at 0.251 µg/mL.

In assay [1], VRC06b (antibody) showed an IC50, neutralization of BG505.T332N pseudovirus, TZM-bl cells of 1.11 µg/mL.

3BC315 (antibody) registered an IC50, neutralization of BG505.T332N pseudovirus, TZM-bl cells in assay [1] of 1.26 µg/mL.

Take CH106 (antibody): the IC50, neutralization of BG505.T332N pseudovirus, TZM-bl cells in assay [1] came to 2.7 µg/mL.

For the substance F240 (antibody), the IC50, neutralization of BG505.T332N pseudovirus, TZM-bl cells in assay [1] was above 30 µg/mL. In assay [2], this substance registered an IC50 of neutralization of BG505.T332N Env-pseudovirus (TZM-bl) above 30 µg/mL.

The substance PGT122 (antibody) came in with an IC50, neutralization of BG505.T332N pseudovirus, TZM-bl cells in assay [1] of 0.112 µg/mL.

For the substance 3BNC60 (antibody), the IC50, neutralization of BG505.T332N pseudovirus, TZM-bl cells in assay [1] amounted to 0.034 µg/mL.

Consider A32 (antibody), for which, in assay [1], the IC50, neutralization of BG505.T332N pseudovirus, TZM-bl cells is above 30 µg/mL. In assay [2], the IC50 of neutralization of BG505.T332N Env-pseudovirus (TZM-bl) was above 30 µg/mL.

PGT145 (antibody) showed an IC50, neutralization of BG505.T332N pseudovirus, TZM-bl cells in assay [1] of 0.083 µg/mL.

Consider VRC06 (antibody), for which, in assay [1], the IC50, neutralization of BG505.T332N pseudovirus, TZM-bl cells amounted to 3.32 µg/mL.

In the case of 2G12 (antibody), in assay [1], the IC50, neutralization of BG505.T332N pseudovirus, TZM-bl cells was found to be 0.79 µg/mL.

For the substance 12A12 (antibody), the IC50, neutralization of BG505.T332N pseudovirus, TZM-bl cells in assay [1] turned out to be 0.05 µg/mL.

The substance PGT125 (antibody) gave an IC50, neutralization of BG505.T332N pseudovirus, TZM-bl cells in assay [1] of 0.007 µg/mL.

(Values after patent US20140212458A1.)
